Results: patent publication US20180305414A1
Numbering of substitutions follows the chain as printed. Values belong to the molecule of their own block, whether it stands above or below them.

Legend:
[1] = biological target: human IgG (available from the Chemo-Sero-Therapeutic Research Institute) (human); test: binding capacity; Capto L resin, human IgG, acid elution, A280
[2] = biological target: Fab prepared by papain treatment of human IgG (human); test: binding capacity; Capto L resin, 20 mg/mL human Fab, acid elution, A280
[3] = biological target: human IgG (available from the Chemo-Sero-Therapeutic Research Institute) (human); test: binding capacity; binder immobilised on agarose gel, human IgG
[4] = biological target: Fab prepared by papain treatment of human IgG (human); test: binding capacity; binder immobilised on agarose gel, 20 mg/mL human Fab, acid elution, A280
[5] = biological target: human IgG (available from the Chemo-Sero-Therapeutic Research Institute) (human); test: binding capacity; binder immobilised on agarose gel, human IgG, acid elution, A280
[6] = biological target: human IgG (available from the Chemo-Sero-Therapeutic Research Institute) (human); test: binding capacity against Capto L
[7] = biological target: Fab prepared by papain treatment of human IgG (human); test: binding capacity against Capto L
[8] = biological target: human IgG (available from the Chemo-Sero-Therapeutic Research Institute) (human); test: binding capacity; binder immobilised on agarose gel, 40 mg/mL human IgG, acid elution, A280

Molecule: Capto L (GE Healthcare KK) having a tetramer (Protein L) with the native sequence immobilized thereon
- IgG Binding Capacity [1]: 43.6 mg/mL gel
- Fab Binding Capacity [2]: 30.9 mg/mL gel

B1: hexameric multidomain polypeptide PL-624 (six linked modified domains of PL-024) (designed binder)
chain: AQHDEAGLALETPEEPREEVTIRVNLIFADGRTQTAEFRGTFEEATAEAYRYADLLARVNGEYTADLEDGGYTINIRFAGALETPEEPREEVTIRVNLIFADGRTQTAEFRGTFEEATAEAYRYADLLARVNGEYTADLEDGGYTINIRFAGALETPEEPREEVTIRVNLIFADGRTQTAEFRGTFEEATAEAYRYADLLARVNGEYTADLEDGGYTINIRFAGALETPEEPREEVTIRVNLIFADGRTQTAEFRGTFEEATAEAYRYADLLARVNGEYTADLEDGGYTINIRFAGALETPEEPREEVTIRVNLIFADGRTQTAEFRGTFEEATAEAYRYADLLARVNGEYTADLEDGGYTINIRFAGALETPEEPREEVTIRVNLIFADGRTQTAEFRGTFEEATAEAYRYADLLARVNGEYTADLEDGGYTINIRFAGALPSKSKKILKEAKKLNKAQAPKKKK
- human IgG binding capacity relative to PL-024 [3]: 151%
- Fab Binding Capacity [4]: 75.9 mg/mL gel
- IgG Binding Capacity [5]: 95.8 mg/mL gel
- amount of bound IgG relative to Capto L [6]: 2.2 times
- amount of bound Fab fragment relative to Capto L [7]: 2.4 times

B2: chimeric protein PL-021 containing immunoglobulin-binding domain 1 of Protein L (designed binder)
chain: MAQHDEAGLALETPEPEEEVTIKANLIFADGSTQNAEFKGTFAKAVSDAYAYADALKKDNGEYTVDVADKGLTLNIKFAGALPSKSKKILKEAKKLNKAQAPKKKK
- IgG Binding Capacity [8]: 45.3 mg/mL gel

B3: chimeric protein PL-014 containing immunoglobulin-binding domain 4 of Protein L (designed binder)
chain: MAQHDEAGLALETPEEPKEEVTIKVNLIFADGKTQTAEFKGTFEEATAEAYRYADLLAKVNGEYTADLEDGGYTINIKFAGALPSKSKKILKEAKKLNKAQAPKKKK
- IgG Binding Capacity [8]: 57.4 mg/mL gel
- IgG Binding Capacity [5]: 57 mg/mL gel

B4: modified product PL-045 of immunoglobulin-binding domain 4 (designed binder)
chain: B3 chain with T13R, K33R
- IgG Binding Capacity [5]: 60.6 mg/mL gel

B6: modified product PL-024 of immunoglobulin-binding domain 4 (designed binder)
chain: B3 chain with K18R, K24R, K33R, K40R, K59R, K78R
- increase of binding capacity against PL-014 [3]: 11%
- IgG Binding Capacity [5]: 63.4 mg/mL gel

B7: modified product PL-046 of immunoglobulin-binding domain 4 (designed binder)
chain: B3 chain with T13K, K18R, K33R
- IgG Binding Capacity [5]: 59.7 mg/mL gel

B9: modified product PL-038 of immunoglobulin-binding domain 4 (designed binder)
chain: B3 chain with T13R, K18R, K24R, K33R, K40R, K59R, K78R
- increase of binding capacity against PL-014 [3]: 11%
- IgG Binding Capacity [5]: 63.6 mg/mL gel

B11: modified product PL-036 of immunoglobulin-binding domain 4 (designed binder)
chain: B3 chain with T13K, K18R, K24R, K33R
- IgG Binding Capacity [5]: 59.1 mg/mL gel

B13: chimeric protein PL-022 containing immunoglobulin-binding domain 2 of Protein L (designed binder)
chain: B3 chain with T13K, E49K, R52A, V60E, Y73N
- IgG Binding Capacity [8]: 53.3 mg/mL gel

B15: modified product PL-043 of immunoglobulin-binding domain 4 (designed binder)
chain: B3 chain with T13R
- IgG Binding Capacity [5]: 59.3 mg/mL gel

B16: modified product PL-035 of immunoglobulin-binding domain 4 (designed binder)
chain: B3 chain with K18R, K24R
- IgG Binding Capacity [5]: 56.9 mg/mL gel

B18: modified product PL-028 of immunoglobulin-binding domain 4 (designed binder)
chain: B3 chain with T13K, K40R, K59R, K78R
- increase of binding capacity against PL-014 [3]: 5%
- IgG Binding Capacity [5]: 60.1 mg/mL gel

B21: modified product PL-027 of immunoglobulin-binding domain 4 (designed binder)
chain: B3 chain with K18R, K24R, K33R
- IgG Binding Capacity [5]: 58.6 mg/mL gel

B24: modified product PL-048 of immunoglobulin-binding domain 4 (designed binder)
chain: B3 chain with T13K, K24R, K33R, K40R
- IgG Binding Capacity [5]: 57.9 mg/mL gel

B25: modified product PL-044 of immunoglobulin-binding domain 4 (designed binder)
chain: B3 chain with T13K, K33R
- IgG Binding Capacity [5]: 58.9 mg/mL gel

B29: chimeric protein PL-023 containing immunoglobulin-binding domain 3 of Protein L (designed binder)
chain: B3 chain with T34I, E49K, R52A, D55N, V60E, Y73N
- IgG Binding Capacity [8]: 52.2 mg/mL gel
- IgG Binding Capacity [5]: 52.2 mg/mL gel

B30: modified product PL-026 of immunoglobulin-binding domain 4 (designed binder)
chain: B3 chain with T13K, K18R, K24R
- IgG Binding Capacity [5]: 57.8 mg/mL gel

B31: modified product PL-047 of immunoglobulin-binding domain 4 (designed binder)
chain: B3 chain with T13K, K24R, K33R
- IgG Binding Capacity [5]: 59.2 mg/mL gel

More lines, now with the values ahead:

- IgG Binding Capacity [5]: 56.1 mg/mL gel
B5: modified product PL-059 of immunoglobulin-binding domain 4 (designed binder)
chain: B3 chain with T13K, K18R, K40R

- IgG Binding Capacity [5]: 55.9 mg/mL gel
B8: modified product PL-053 of immunoglobulin-binding domain 4 (designed binder)
chain: B3 chain with T13K, K18R, K24R, K33E

- IgG Binding Capacity [5]: 57.3 mg/mL gel
B10: modified product PL-055 of immunoglobulin-binding domain 4 (designed binder)
chain: B3 chain with T13K, K18R, K24R, K33F

- IgG Binding Capacity [5]: 55.6 mg/mL gel
B12: modified product PL-057 of immunoglobulin-binding domain 4 (designed binder)
chain: B3 chain with T13K, K18R, K24R, K40R

- IgG Binding Capacity [5]: 58.6 mg/mL gel
B14: modified product PL-058 of immunoglobulin-binding domain 4 (designed binder)
chain: B3 chain with T13K, K18R, K33R, K40R

- IgG Binding Capacity [5]: 59.8 mg/mL gel
B17: modified product PL-061 of immunoglobulin-binding domain 3 (designed binder)
chain: B3 chain with K18R, K24R, K33R, T34I, K40R, E49K, R52A, D55N, V60E, Y73N

- IgG Binding Capacity [5]: 59 mg/mL gel
B19: modified product PL-050 of immunoglobulin-binding domain 4 (designed binder)
chain: B3 chain with T13K, K18R, K24R, K33T

- IgG Binding Capacity [5]: 57.3 mg/mL gel
B20: modified product PL-051 of immunoglobulin-binding domain 4 (designed binder)
chain: B3 chain with T13K, K18R, K24R, K33L

- IgG Binding Capacity [5]: 57.6 mg/mL gel
B22: modified product PL-060 of immunoglobulin-binding domain 4 (designed binder)
chain: B3 chain with T13K, K18T, K24R, K33R

- IgG Binding Capacity [5]: 58.4 mg/mL gel
B23: modified product PL-054 of immunoglobulin-binding domain 4 (designed binder)
chain: B3 chain with T13K, K18R, K24R, K33Q

- IgG Binding Capacity [5]: 58.5 mg/mL gel
B26: modified product PL-052 of immunoglobulin-binding domain 4 (designed binder)
chain: B3 chain with T13K, K18R, K24R, K33H

- IgG Binding Capacity [5]: 61.6 mg/mL gel
B27: modified product PL-056 of immunoglobulin-binding domain 4 (designed binder)
chain: B3 chain with T13K, K18R, K24R, K33A

- IgG Binding Capacity [5]: 59.7 mg/mL gel
B28: modified product PL-049 of immunoglobulin-binding domain 4 (designed binder)
chain: B3 chain with T13K, K18R, K24R, K33R, K40R

- human IgG binding capacity relative to PL-024 [3]: 144%
- Fab Binding Capacity [4]: 72.4 mg/mL gel
- IgG Binding Capacity [5]: 91.6 mg/mL gel
- amount of bound IgG relative to Capto L [6]: 2.2 times
- amount of bound Fab fragment relative to Capto L [7]: 2.4 times
B32: tetrameric multidomain polypeptide PL-424 (four linked modified domains of PL-024) (designed binder)
chain: AQHDEAGLALETPEEPREEVTIRVNLIFADGRTQTAEFRGTFEEATAEAYRYADLLARVNGEYTADLEDGGYTINIRFAGALETPEEPREEVTIRVNLIFADGRTQTAEFRGTFEEATAEAYRYADLLARVNGEYTADLEDGGYTINIRFAGALETPEEPREEVTIRVNLIFADGRTQTAEFRGTFEEATAEAYRYADLLARVNGEYTADLEDGGYTINIRFAGALETPEEPREEVTIRVNLIFADGRTQTAEFRGTFEEATAEAYRYADLLARVNGEYTADLEDGGYTINIRFAGALPSKSKKILKEAKKLNKAQAPKKKK
